These are literature values, as cited in article PMC4715488.

This series has as its target GPP130 (Homo sapiens) (UniProt O00461).
Sequence of UniProt O00461 (O00461 2-696): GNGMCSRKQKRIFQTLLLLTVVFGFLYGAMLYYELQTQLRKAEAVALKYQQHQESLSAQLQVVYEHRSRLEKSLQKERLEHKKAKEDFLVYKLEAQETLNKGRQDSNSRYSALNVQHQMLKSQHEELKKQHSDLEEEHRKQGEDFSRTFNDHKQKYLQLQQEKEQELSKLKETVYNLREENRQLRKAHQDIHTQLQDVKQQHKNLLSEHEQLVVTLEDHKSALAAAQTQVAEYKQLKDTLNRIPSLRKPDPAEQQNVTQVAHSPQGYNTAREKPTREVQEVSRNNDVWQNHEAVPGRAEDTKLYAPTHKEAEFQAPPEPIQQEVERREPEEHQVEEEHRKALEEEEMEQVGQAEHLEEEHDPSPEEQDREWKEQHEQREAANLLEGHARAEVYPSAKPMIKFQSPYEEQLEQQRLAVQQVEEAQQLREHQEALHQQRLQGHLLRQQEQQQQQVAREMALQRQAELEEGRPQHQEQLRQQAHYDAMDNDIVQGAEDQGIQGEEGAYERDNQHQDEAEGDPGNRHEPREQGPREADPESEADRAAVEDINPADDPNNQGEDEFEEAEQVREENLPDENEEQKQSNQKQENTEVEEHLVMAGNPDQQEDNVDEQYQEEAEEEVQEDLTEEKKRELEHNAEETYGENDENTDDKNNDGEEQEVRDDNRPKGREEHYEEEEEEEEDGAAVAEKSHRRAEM

As usually defined, the Kd is the free concentration of one partner at which half of the binding sites on the other are occupied at equilibrium, for simple one-to-one binding. “Shiga toxin 1 B subunit (STx1B) (from UniProt Q32GM0)”: the Kd was 150 nM.
